{"source": "paper PMC8155666", "about": "“Engineering Promiscuous Alcohol Dehydrogenase Activity of a Reductive Aminase AspRedAm for Selective Reduction of Biobased Furans” (Frontiers in Chemistry, 2021)", "molecules": {"B1": {"name": "AspRedAm (Aspergillus oryzae RIB40) (protein)", "chain": "MSKHIGIFGLGAMGTALAAKYLEHGYKTSVWNRTTAKAIPLVEQGAKLASTISEGVNANDLIIICLLNNQVVEDALRDALQTLPSKTIVNLTNGTPNQARKLADFVTSHGARYIHGGIMAVPTMIGSPHAVLLYSGESLELFQSIESHLSLLGMSKYLGTDAGSASLHDLALLSGMYGLFSGFLHAVALIKSGQDTSTTATGLLPLLTPWLSAMTGYLSSIAKQIDDGDYATQGSNLGMQLAGVENIIRAGEEQRVSSQMILPIKALIEQAVGEGHGGEDLSALIEYFKVGKNVD"}}, "key": {"[1]": {"tested_on": "T1, O=Cc1ccc(CO)o1", "T1 construct": "recombinant, purified", "assay": "purified protein", "format": "biochemical, Aspergillus oryzae", "settings": "0.2 mM NADH, 100 mM Tris-HCl pH 8, 30°C, 1 μM-5 mM HMF, 37 μg/ml enzyme"}, "[2]": {"substrate": "O=Cc1ccc(CO)o1", "assay": "purified protein", "settings": "0.2 mM NADH, 100 mM Tris-HCl pH 9, 30°C, 1 μM-5 mM HMF, 43 μg/ml enzyme"}}, "data": [{"molecule": "AspRedAm (Aspergillus oryzae RIB40; N93A)", "values": [{"measurement": "Km", "setting": "[1]", "value": "4.1 ± 0.7 ×10^-3 mM"}, {"measurement": "kcat", "setting": "[1]", "value": "0.0967 ± 0.0076", "unit": "s⁻¹"}, {"measurement": "kcat/Km", "setting": "[1]", "value": "23600 ± 2000", "unit": "M⁻¹ s⁻¹"}]}, {"molecule": "B1", "values": [{"measurement": "Km", "setting": "[2]", "value": "1.3 ± 0.2 ×10^-3 mM"}, {"measurement": "kcat", "setting": "[2]", "value": 0.0175, "unit": "s⁻¹"}, {"measurement": "kcat/Km", "setting": "[2]", "value": 13100, "unit": "M⁻¹ s⁻¹"}]}]}
